The term Kd denotes the equilibrium constant for the complex coming apart. Read a low Kd as tighter binding. By koff is commonly meant the rate constant with which the complex falls apart. What is called kon is the rate constant with which the complex forms. A low value points to slow association.

This passage reports Kd, koff and kon results from US20240101638A1 (CURRUS BIOLOGICS, published 2024).

Where “and” joins values, the source holds several entries; their conditions need not be identical. Equal entries are not always repeated.

This assay deals with T1, Mesothelin (Homo sapiens (Human), UniProt Q13421 296-598).
T1 construct: Soluble analyte in SPR at 0.15-111 nM
T1 sequence (Q13421 other isoform, or with tags, fused parts or gaps limits assumed): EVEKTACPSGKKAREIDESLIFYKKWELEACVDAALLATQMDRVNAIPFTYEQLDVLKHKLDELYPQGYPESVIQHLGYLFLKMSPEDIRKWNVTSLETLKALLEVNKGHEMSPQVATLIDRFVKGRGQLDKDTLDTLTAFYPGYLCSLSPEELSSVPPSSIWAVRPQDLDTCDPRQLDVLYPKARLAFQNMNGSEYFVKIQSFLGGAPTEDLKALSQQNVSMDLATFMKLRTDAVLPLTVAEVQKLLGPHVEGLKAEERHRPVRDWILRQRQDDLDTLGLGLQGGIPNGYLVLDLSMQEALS
The experiment in a line: SPR, antibody as ligand, mesothelin as analyte. (In general: Surface plasmon resonance follows binding to a sensor surface in real time, without labels.)

B1: 7B1 IgG1 LALA anti-mesothelin antibody (antibody, V domains shown)
VH: EVHLVESGGGLVQPGGSLRLSCAASGFTFSRYWMSWVRQAQGKGLEWVASIKQAGSEKTYVDSVKGRFTISRDNAKNSLSLQMNSLRAEDTAVYYCAREGAYYYDSASYYPYYYYYSMDVWGQGTTVTVSS
VL: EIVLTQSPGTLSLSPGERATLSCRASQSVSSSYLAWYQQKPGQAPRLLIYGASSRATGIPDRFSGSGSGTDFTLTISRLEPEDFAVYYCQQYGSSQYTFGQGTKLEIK
notes: Tested as IgG1 with LALA mutations; It was the immobilised ligand in the SPR; two samples were measured; also called 7B1 IgG1 LALA AA cAb7385-10.16; 7b1 IgG1 LALA - Sample 1
Consider B1, for which the Kd was 0.912 nM and 0.658 nM; the dissociation rate constant (koff) was 0.000189 s⁻¹ and 0.000132 s⁻¹; the kon was 207000 M⁻¹ s⁻¹ and 201000 M⁻¹ s⁻¹.
